This data set deals with Saccharomyces cerevisiae. Kind of data set: transcriptional activation domain activity (GFP:mCherry ratio, weighted mean of sorted bins, harmonized to initial dataset scale) (arbitrary fluorescence ratio units); higher = stronger transcriptional activation. The conditions noted are these: beta-estradiol 1 µM; induction time 4 h. In outline: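 Protein tiles carrying barcodes and fused to an estradiol-inducible synthetic transcription factor were placed at the URA3 locus of yeast diploids with a GFP reporter. Following 4 hours at 30 °C in SC with 1 uM beta-estradiol, cells were sorted into 8 GFP:mCherry bins, barcodes were sequenced, and tiles with fewer than 50 reads were discarded. Activation activity is given as the read-weighted mean of bin median fluorescence, averaged across barcodes and linearly mapped to the initial dataset scale.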
In the case of “SSEGGEENKAEEAELEKADKPKEETTEEKKSEEEKPEEKKPEEKKPEETKAEN”, the “transcriptional activation domain activity” value is 18500. The figure for “SAKEEPGAAETDADTDPEPAAGKKRKRQEDKGEAQEGGSGKKSVGGKKAKQAE” is 19200; for “MRSSLPKLYRYGCLYWITGLCIFVYILYERRYYCCHNMPYFFHQPWFLCLSSL” it is 68800; for “ALYSLKGRELGWLCLTICTFDGKSWMEFGAFSRRGLFTYNYGLLQPNTKRIAV” it is 35700.

As for “YMCTCAWSVIWAQQLYTRGPLLQFIAKHTNYAGKPSMTFNQIVLLWVLYQIQG”, the “transcriptional activation domain activity” value came to 49800. As to “ISKTIAVLELACDVLHHNPGVFIISVLLLVIFIAFTAIWMVLFNRLWLIGHLN”, the “transcriptional activation domain activity” value was found to be 56000.

In the case of “MLLYTFILIVHIHRDLGSIDFVWKARNETASLRQRYLAVNYQLLFGVIKYLWA”, the “transcriptional activation domain activity” value amounted to 33400. The figure for “KSRKRAKKSPEESEVESKHRRRRSRKAVEDENDENSHCKRTKKVAGAESEKAV” is 19700; for “MLYYYHYLAVQSGLKRKYAFKNMYLCLLLYSLFFVFASINIVHLIKWQCYFFV” it is 45800.

Turning to “ASLEGGGGVVDISGETSSYVWRVLVYLAFINPFFCFLCALYAILILLAVLVTY”, the “transcriptional activation domain activity” value was 29300. Under “LIVIRIVNPVIMYFFISCFYSLLSVAFQVPFNRYYGSSGFVIYWMMSWLAMCA” stands 55900; under “EAEIGVAAEDKISPQKARRKAKVEKEDGKAEEGAEGQKTTKRRRKTKEEKEEE”, 14900; under “APSRRTGRTSTAGSASESRPTSSCTSPRRPPTPPARPPASPRTRRTSPRRPSA”, 31000. On to “ERKDREKMKAKLKEAKREKQRKERAREREKERERKRKEKEKEKKRKEKERERK”, for which the “transcriptional activation domain activity” value came out at 38000. The figure for “TFSNGEGERVSAWDARETEDGGREIFIEGEEVRVVVVQIRDGRVADWKGAVRD” is 30200.

Turning to “KVERGREVRKKAREEREKRGATGGGRGKGRGKGKGKGRDGERGKSAAEEGAGA”, the “transcriptional activation domain activity” value is 10800. Under “YCLLYWVWWFLAFSCWVFCLIYIFAIHCLIWVLVWLSVCFLLMGGYLFFCKED” stands 30600.

With “ASASASALPSSGFGATRGMKVRASVKKICEGCSSVKRRGRVFIICSKNQKHKQ”, the “transcriptional activation domain activity” value was determined as 36400. With “CGRCRCCRGLLPLYPHHPFSFFVLLCIPGMFLLLLVHWMFLSFVSGFAILVPE”, the “transcriptional activation domain activity” value is 79500. As for “LLKAVQEDEGDDGVIVAYLDTLVPLLEDYLTSGPLGQFTLRLRLLLSFQVYAS”, the “transcriptional activation domain activity” value stood at 53800. Under “SSATASAADAATTDAASGSLEARKKKDDKKKGDKKKGKKGDKKGGKKAASTTA” stands 12500; under “TSSPSAQTAASTTVVLVIGSDDKKVKEVGDELKTKLNVKGGGKGPRWSGKFTG”, 24700. Under “FAEQGWQVVYYSWQWSLGVYIHYYLPSSVWAGYPHISLPVVIKVYYLMQISLY” stands 37900. Under “STQCSCEDESCPCVNCLIHRSEEELNSYIQQSGVPLTNIGEAQITDKMMDYLD” stands 56900; under “EKSEGANGEAGGEGSRRRASGRGRLRGRGRNGRGGRGGRAGETTDDKKEGEAT”, 26100; under “LLTYKLYRLWIVAAKITDDEKRKQCLHLTCCLLPKCHRDSLEILFYFLKWAGT”, 50700. In the case of “FFFFLLFFPLPFFPSSFPFFFLIHLLISSSLVFPFSSSSSSLTQVFWCLCFFF”, the “transcriptional activation domain activity” value stood at 57400. Consider “SALFCKIWTIIQAYYIVISFISIHNCMPCTMPFHHECVGSIPLWLWVTWLPSI”, for which the “transcriptional activation domain activity” value came out at 40400. The figure for “KKAKAGDEDEEGGADKASPKKGAKRGRKQVEDEDEDESEEVQPKAKRAKKAVV” is 24800; for “ANRCSFFALEFSVGISWSTVGADFYVYYPTNTSKRLTFFMTWAGLWISLIFVN” it is 47200.

The values above are taken from the supplement of paper PMC12636428.
